According to US20210386875:

Tested on: ^111In-labeled DTPA-pMMP9 peptide on non-radioactive 10 nm gold nanoparticles

Chain of MMP9 (chain, as listed by the source): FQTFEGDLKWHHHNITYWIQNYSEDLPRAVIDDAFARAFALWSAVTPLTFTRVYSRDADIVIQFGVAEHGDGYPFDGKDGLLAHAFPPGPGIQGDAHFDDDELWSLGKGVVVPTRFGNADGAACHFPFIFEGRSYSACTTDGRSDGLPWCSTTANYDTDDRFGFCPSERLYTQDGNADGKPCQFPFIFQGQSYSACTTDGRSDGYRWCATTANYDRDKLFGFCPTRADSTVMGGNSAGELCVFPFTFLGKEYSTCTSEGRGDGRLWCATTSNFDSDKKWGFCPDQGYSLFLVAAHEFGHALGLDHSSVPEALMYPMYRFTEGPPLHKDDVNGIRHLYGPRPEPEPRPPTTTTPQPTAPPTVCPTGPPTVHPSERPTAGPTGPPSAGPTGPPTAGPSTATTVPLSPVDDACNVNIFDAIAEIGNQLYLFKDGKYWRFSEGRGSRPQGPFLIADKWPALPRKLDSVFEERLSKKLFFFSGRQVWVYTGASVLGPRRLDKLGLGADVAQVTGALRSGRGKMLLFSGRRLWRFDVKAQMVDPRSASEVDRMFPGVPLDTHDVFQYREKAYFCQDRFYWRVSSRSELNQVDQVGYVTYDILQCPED

For MMP9, the “percent of ^111In cleaved from the nanoparticle after 48 hours incubation with MMP9 (16% without MMP9)” value was 48% ^111In was cleaved from the nanoparticle compared to only 16% without MMP9.
